From patent US5512203A, “Cutinase cleaning compositions” (Genencor International, Inc., priority 1994, dated 1996)

Key:
Type in all cases: biochemical
[1] = Effect of surfactants on hydrolase activity of cutinase; conditions: for Compatibility of surfactant with the cutinase: at the concentrations tested
Protocol: This example measures the effect of surfactants (detergents) on the hydrolytic activity of cutinase. Specifically, in this example, an aqueous solution was prepared so as to contain 120 nanomoles per liter of cutinase (isolated in a substantially pure form from P. mendocina, ATCC 53552, described in U.S. Ser. No. 932,959 filed Nov. 19, 1986 and incorporated herein by reference); and 0.1 moles/liter of Tris Tris(hydroxymethyl)aminomethane! buffer maintained at pH 8.0 and 25° C. In some cases, surfactant sodium dodecyl sulfate (SDS) and/or Triton X-100™ (octoxynol), available from Rohn & Haas, Philadelphia, Pa.! was then added in the amount specified in Table 4 below. In this example, the enzymatic activity of the cutinase was measured in these solutions using the amount of p-nitrophenol generated from the p-nitrophenylbutyrate substrate as measured by following the absorbance of p-nitrophenol at 410 nm. The enzymatic activity of the cutinase under the above conditions and in the absence of surfactant is arbitrarily assigned a value of 100 percent and enzymatic activity of the other test solutions are reported as a percentage of the standard.

[2] = Stability of cutinase against proteases, hydrolysis of p-nitrophenyl butyrate; conditions: for Cutinase activity after time: pH 10, 37° C.
Protocol: A. In part A of this example, the cutinase employed was that cutinase isolated in a substantially pure form from P. mendocina, ATCC 53552, described in U.S. Ser. No. 932,959 filed Nov. 19, 1986 and incorporated herein by reference and the protease employed was either Maxacal™ (a substilisin protease available from Gist-Brocade, N.V., Delft, Holland) or Esperase™ (a protease available from Novo Industries, Copenhagen, Denmark).
In this example aqueous test solutions containing 42 μg/ml of cutinase and either 35 μg/ml (Maxacal™) or 64 μg/ml (Esperase™) of protease were prepared. The solutions were buffered to pH 10 with 0.1M sodium phosphate. The solutions were incubated at 37° C. and the enzymatic activity of cutinase was periodically monitored by the hydrolysis of a model cutinase substrate p-nitrophenyl butyrate as measured by the absorbance change at 410 nm in 100 mM Tris buffer containing 0.1% Triton X-100 at pH 8. This value correlated against a standard, i.e., an aqueous solution containing cutinase but no protease. Diminishment in the enzymatic activity of the cutinase in the test solutions as compared to the standard is attributed to degradation of the cutinase by the protease.

[3] = Cutinase activity after 28 minutes with proteases, pH stat hydrolysis of trioctanoin; conditions: 2 μg/ml cutinase, pH 10, 37° C.
Source text: B. In part B of this example, the cutinase employed was the same as in part A above whereas the protease employed was either Alcalase™ (an alkaline protease available from Novo Industries, Copenhagen, Denmark), a mixture of Alcalase™ and Savinase™ (an alkaline protease available from Novo Industries, Copenhagen, Denmark), or a mixture of Savinase™ and Esperase™ (a protease available from Novo Industries, Copenhagen, Denmark).
In this example, aqueous test solutions containing cutinase contained 2 μg/ml of cutinase and the amount of protease specified in Table 2 below. The solutions were incubated at 37° C. for 28 minutes at pH 10 and the enzymatic activity of cutinase was periodically measured in a pH stat by the hydrolysis of trioctanoin in a 0.5 percent trioctanoin and a 0.05 percent sodium dodecyl sulfate emulsion. The measured value was correlated against a standard, i.e., an aqueous solution containing cutinase but no protease. Diminishment in the enzymatic activity of the cutinase in the test solutions as compared to the standard is attributed to degradation of the cutinase by the protease.

[4] = pH stability of bacterial cutinase, half-life at 50° C., hydrolysis of trioctanoin in polyvinyl alcohol emulsions
Protocol: In this example the half-life of the same cutinase used in Example 1 above was measured at 50° C. at various pHs. Specifically, cutinase was introduced into a 0.1M sodium phosphate buffer at the pH specified below and the activity was measured by hydrolysis of trioctanoin in polyvinyl alcohol emulsions. The time required for the activity to diminish to 1/2 of its initial value is taken as the half-life at that particular pH.

[5] = Stability of cutinase to oxidants (hydrogen peroxide); conditions: for Percent Cutinase Activity: pH 8.4, 25° C., two hours
Protocol: Specifically, in this example, an aqueous solution of 0.5 mg/ml of cutinase (isolated in a substantially pure form from P. mendocina, ATCC 53552, described in U.S. Ser. No. 932,959 filed Nov. 19, 1986 and incorporated herein by reference) containing 0.1M sodium phosphate buffer was incubated in varying amounts of hydrogen peroxide wherein the aqueous solution was maintained at pH 8.4 and at 25° C. for two hours. The enzymatic activity of the cutinase under the above conditions and in the absence of hydrogen peroxide is arbitrarily assigned a value of 100% and enzymatic activity of the other test solutions are reported as a percentage of the standard.

[6] = Removal of cutin-like stains from an insoluble support matrix, 3H-triolein hydrolysis; conditions: polyester swatches, 1 percent BSA
Protocol: The substrate was prepared by diluting 1 mCi of ^3 H-Triolein (0.5 mCi/ml, […]) into 17 ml isopropanol containing 421 mg of non-^3 H-Triolein. The final concentration was about 23-24 mg Triolein/ml. This was divided into 1 ml aliquots and stored.
Polyester cloth swatches cut into approximately 1/2 inch×1/2 inch squares were laid onto a glass plate. 3 μl of the above mixture was pipetted onto each swatch and allowed to air dry.
A solution comprising 1 percent fatty acid free bovine serum albumin (BSA), and 100 mM of a suitable buffer, preferably Tris (pH range 6 to 9) or glycine (pH range 8 to 11) was allowed to equilibrate to a fixed temperature (preferably 32° C.) in a shaking water bath. An aliquot of cutinase (0.25 to 1.5 μg/ml) was then added to 2.8 ml of the BSA solution, followed by the insertion of four of the cloth swatches, taking care to keep the swatches as separate as possible. The cutinase added was isolated from Fusarium solani pisi, Colletotrichum capsici, Pseudomonas mendocina or Pestalotia subcuticularia. The entire mixture was then allowed to shake in the constant temperature bath at 150 rpm for 15 minutes.
An aliquot of the liquor, preferably 20% of the entire volume was pipetted into a scintillation vial containing 10 ml of Ecolume™ scintillation fluid. After chilling, the scintillation vials were counted. […]

[7] = Cutinase activity against pH (FIG. 1)

octoxynol [Triton X-100, reference compound]
Compatibility of surfactant with the cutinase [1]: compatible with the cutinase

CCCCCCCCCCCCOS(=O)(=O)[O-].[Na+] [sodium dodecyl sulfate, reference compound]
Compatibility of surfactant with the cutinase [1]: is not

B1: cutinase: cutinase isolated in a substantially pure form from Pseudomonas mendocina ATCC 53552, amino acid sequence of SEQ ID NO:1 (protein)
chain: APLPDTPGAPFPAVANFDRSGPYTTSSQSEGPSCRIYRPRNLGQGGVRHPVILWGNGTGAGPSTYAGLLSHWASHGFVVAAAETSNAGTGREMLACLDYLVRENDTPYGTYSGKLNTGRVGTSGHSQGGGGSIMAGQDTRVRTTAPIQPYTLGLGHDSASQRRQQGPMFLMSGGGDTIAFPYLNAQPVYRRANVPVFWGERRYVSHFEPVGSGGAYRGPSTAWFRFQLMDDQDARATFYGAQCSLCTSLLWSVERRGL
Cutinase activity after time ([2]; Esperase 64 μg/ml, 0 min): 1.73 absorbance change at 410 nm
Cutinase activity after time ([2]; Esperase 64 μg/ml, 5 min): 1.64 absorbance change at 410 nm
Cutinase activity after time ([2]; Esperase 64 μg/ml, 10 min): 1.59 absorbance change at 410 nm
Cutinase activity after time ([2]; Esperase 64 μg/ml, 15 min): 1.51 absorbance change at 410 nm
Cutinase activity after time ([2]; Esperase 64 μg/ml, 840 min): 0.456 absorbance change at 410 nm
Cutinase activity after time ([2]; Maxacal 35 μg/ml, 0 min): 1.68 absorbance change at 410 nm
Cutinase activity after time ([2]; Maxacal 35 μg/ml, 5 min): 1.58 absorbance change at 410 nm
Cutinase activity after time ([2]; Maxacal 35 μg/ml, 10 min): 1.72 absorbance change at 410 nm
Cutinase activity after time ([2]; Maxacal 35 μg/ml, 15 min): 1.66 absorbance change at 410 nm
Cutinase activity after time ([2]; Maxacal 35 μg/ml, 840 min): 0.134 absorbance change at 410 nm
Cutinase activity after time ([2]; Standard, no protease, 0 min, 42 μg/ml cutinase): 1.57 absorbance change at 410 nm
Cutinase activity after time ([2]; Standard, no protease, 5 min): 1.60 absorbance change at 410 nm
Cutinase activity after time ([2]; Standard, no protease, 10 min): 1.47 absorbance change at 410 nm
Cutinase activity after time ([2]; Standard, no protease, 15 min): 1.63 absorbance change at 410 nm
Cutinase activity after time ([2]; Standard, no protease, 840 min): 1.61 absorbance change at 410 nm
Stability in aqueous solution in the presence of a protease ([2]; results from A and B of Example 1, periods of time commonly encountered in cleaning use): stable
Cutinase activity in the aqueous solution after 28 minutes ([3]; Alcalase 34.7 μg/ml): 420.3 units of octanoic acid released
Cutinase activity in the aqueous solution after 28 minutes ([3]; Alcalase/Savinase 17.7/20.0 μg/ml): 428.0 units of octanoic acid released
Cutinase activity in the aqueous solution after 28 minutes ([3]; Esperase/Savinase 15.0/13.0 μg/ml): 411.0 units of octanoic acid released
Cutinase activity in the aqueous solution after 28 minutes ([3]; no protease): 417.8 units of octanoic acid released
Stability of cutinase activity at pH ([4]; neutral and alkaline pHs, 50° C.): sufficiently stable
Half-life at 50° C. ([4]; pH 7, 0.1M sodium phosphate buffer): 30 h
Half-life at 50° C. ([4]; pH 8, 0.1M sodium phosphate buffer): 25 h
Half-life at 50° C. ([4]; pH 9, 0.1M sodium phosphate buffer): 12 h
Half-life at 50° C. ([4]; pH 10, 0.1M sodium phosphate buffer): 0.3 h
Percent Activity ([1]; Triton X-100 0, SDS 0 weight percent (standard assigned 100), pH 8.0, 25° C.): 100%
Percent Activity ([1]; Triton X-100 0, SDS 0.05 weight percent): 30%
Percent Activity ([1]; Triton X-100 0, SDS 0.1 weight percent): 23%
Percent Activity ([1]; Triton X-100 0, SDS 0.2 weight percent): 14%
Percent Activity ([1]; Triton X-100 0, SDS 0.4 weight percent): 6%
Percent Activity ([1]; Triton X-100 0.05, SDS 0.05 weight percent): 132%
Percent Activity ([1]; Triton X-100 0.1, SDS 0.1 weight percent): 130%
Percent Activity ([1]; Triton X-100 0.2, SDS 0 weight percent): 78%
Percent Activity ([1]; Triton X-100 0.2, SDS 0.05 weight percent): 125%
Percent Activity ([1]; Triton X-100 0.2, SDS 0.1 weight percent): 138%
Percent Activity ([1]; Triton X-100 0.2, SDS 0.2 weight percent): 98%
Percent Activity ([1]; Triton X-100 0.4, SDS 0 weight percent): 60%
Percent Activity ([1]; Triton X-100 0.4, SDS 0.4 weight percent): 78%
Stability of cutinase activity in the presence of an oxidant ([5]; hydrogen peroxide): sufficiently stable
Percent Cutinase Activity ([5]; hydrogen peroxide 0 ppm (standard assigned 100%)): 100%
Percent Cutinase Activity ([5]; hydrogen peroxide 100 ppm): 86%
Percent Cutinase Activity ([5]; hydrogen peroxide 200 ppm): 86%
Percent Cutinase Activity ([5]; hydrogen peroxide 500 ppm): 91%
Percent Cutinase Activity ([5]; hydrogen peroxide 1000 ppm): 95%
Sp. activity triolein hydrolysis [6]: 157,045 cnts./10 min./μg enzyme
Triolein hydrolysis ([6]; cutinase 0.25 to 1.5 μg/ml): 9,250 cnts./10 min.
pH at which cutinase activity reaches a maximum ([7]; FIG. 1): 7
Share of maximum activity maintained ([7]; up to pH 11, FIG. 1): ≥ 80%
